Drawing on the supplement of paper PMC10724198, this text covers protein stability index for 116 sequences.

± gives the standard deviation of the averaged measurements.
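Note: PSI is a weighted mean of sequencing reads over stability bins, variants kept only with over 10 reads, mCherry proximal and sfGFP distal, peptide attached via GGGS linker.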

This data set concerns Saccharomyces cerevisiae. The experiment in a line: protein stability index of tFT-peptide fusion (C-terminal peptide) (PSI (0-1 scale)); higher = more stable (slower turnover). The note with it: genetic background: wild type; temperature: 30 C. The procedure: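 Multiplexed protein stability (MPS) profiling in S. cerevisiae. Random 12-aa peptides (tFT-X12 library) are fused to the C-terminus of a sfGFP-mCherry tandem fluorescent timer, after mCherry and a GGGS linker. Cells are FACS-sorted into 8 mCherry/sfGFP bins and deep-sequenced. The protein stability index (PSI) is the read-weighted bin average, scaled from 0 (unstable) to 1 (stable). Only peptides with >10 reads are reported; cells were grown at 30 °C in SC-His with glucose.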
ARPVPRAPSRYA had a protein stability index of 0.647 ± 0.047.
Next, ARRTEEVVLRSL: 0.693 ± 0.059; ARSERVVPKMQS: 0.732 ± 0.043; ARSGDSGQPPSQ: 0.689 ± 0.05.
Next, ARSPSPLPSPPP: 0.702 ± 0.018; ARVPPFPCHPTL: 0.686 ± 0.03.
For ARVRAREGGDRG, the protein stability index amounted to 0.624 ± 0.0076.
ASDSNPLDPADD: the protein stability index was 0.708 ± 0.011.
Take ASEHRPPRPHER: the protein stability index worked out at 0.683 ± 0.071.
Next, ASFPPVHPALSP: 0.664 ± 0.035.
Next, ASIRLSPSWVQR: 0.652 ± 0.0081; ASLLGLLIHLGR: 0.6951 ± 0.0059.
The sequence ASNPGPLTPPQP registered a protein stability index of 0.705 ± 0.0087.
In turn, ASPCTVAQDPRT came in with a protein stability index of 0.621 ± 0.023.
For the sequence ASPFASCPPSLP, the protein stability index came to 0.714 ± 0.037.
Sequence ASPPAYGPPPPP registered a protein stability index of 0.6806 ± 0.0035.
On to ASPSPLPPLPPP, for which the protein stability index stood at 0.718 ± 0.1.
Regarding ASPYTVTPLTNS, the protein stability index worked out at 0.693 ± 0.016.
For the sequence ASSLSHLSLPAP, the protein stability index is 0.695 ± 0.017.
Next, ASSLSPSTFFCL: 0.642 ± 0.015.
ASSVVGLEERVR: the protein stability index came out at 0.728 ± 0.049.
For ASTCLKFTPTIF, the protein stability index is 0.883 ± 0.1.
Take ASTSPSASSSPP: the protein stability index worked out at 0.727 ± 0.024.
ASVLGGLFRDRV yielded a protein stability index of 0.773 ± 0.057.
The sequence ASVSVWLVFSGG registered a protein stability index of 0.594 ± 0.0075.
ASYGHCTTCRRT: the protein stability index amounted to 0.717 ± 0.021.
Regarding ASYGTRHSAPSV, the protein stability index was 0.678 ± 0.0076.
Consider ASYSFLSFCNRV, for which the protein stability index was found to be 0.631 ± 0.015.
Turning to ATACSIMISNAV, the protein stability index turned out to be 0.662 ± 0.029.
Turning to ATKAKKGTMSHE, the protein stability index was found to be 0.652 ± 0.051.
Regarding ATPPSPLPPSPP, the protein stability index worked out at 0.754 ± 0.061.
The sequence ATQVGGPTHSHP displayed a protein stability index of 0.7016 ± 0.0031.
Take ATRLFSSNLFLR: the protein stability index was determined as 0.576 ± 0.051.
In turn, ATSFSLLPACFS yielded a protein stability index of 0.686 ± 0.0007.
Next, ATYNASLERLRP: 0.719 ± 0.2; AVAETCEQAGRG: 0.675 ± 0.066; AVAYMAHLPITR: 0.69 ± 0.019.
The sequence AVCGSISSWMWF yielded a protein stability index of 0.696 ± 0.0092.
AVFSWVTAGQCD showed a protein stability index of 0.684 ± 0.027.
Next, AVGQAGITSLVL: 0.699 ± 0.029.
Next, AVLGWAGGGWAG: 0.694 ± 0.11.
The sequence AVLPSLWLWTKK showed a protein stability index of 0.682 ± 0.095.
Next, AVPITRLPSPSP: 0.6668 ± 0.0047.
For the sequence AVPSAPPNPDAS, the protein stability index stood at 0.704 ± 0.046.
For AVRDGSGCQCVG, the protein stability index turned out to be 0.6797 ± 0.0012.
In the case of AVRGCGVGSGWR, the protein stability index was found to be 0.713 ± 0.02.
AVRYFKLCRSCL yielded a protein stability index of 0.65 ± 0.012.
In turn, AVTLAPPRLRPL had a protein stability index of 0.761 ± 0.029.
AVTSLGGGIILN: the protein stability index was 0.659 ± 0.045.
AVWNWEEVWLSG had a protein stability index of 0.654 ± 0.023.
Next, AWGRRGGRMKVG: 0.62 ± 0.022.
Sequence AWGWGGTGSAGA showed a protein stability index of 0.71 ± 0.0097.
The sequence AWGWPWGHGFVV yielded a protein stability index of 0.738 ± 0.047.
Regarding AWLLWGPVLRGI, the protein stability index came out at 0.694 ± 0.051.
AYLPSLPPLGGI: the protein stability index was found to be 0.717 ± 0.06.
For AYRITRSRGTEF, the protein stability index stood at 0.7233 ± 0.0036.
Turning to CAGPLLIPPLSL, the protein stability index amounted to 0.6895 ± 0.0042.
On to CAIGECRGAGVS, for which the protein stability index was found to be 0.679 ± 0.032.
In the case of CAIGTGTKVKPS, the protein stability index stood at 0.684 ± 0.016.
On to CALCRLGVAWVS, for which the protein stability index turned out to be 0.596 ± 0.021.
With CAPTFSYSLVLS, the protein stability index is 0.514 ± 0.036.
The sequence CARAAFRGYYAQ registered a protein stability index of 0.744 ± 0.074.
CASPLHPCPKST returned a protein stability index of 0.6542 ± 0.0023.
CCGDAVVGPRVV: the protein stability index is 0.711 ± 0.041.
With CCGSSPLPPFTS, the protein stability index turned out to be 0.724 ± 0.055.
On to CCISCSVCKDGS, for which the protein stability index was 0.6183 ± 0.00094.
CCLSGGFFLFGL: the protein stability index stood at 0.622 ± 0.062.
Consider CCPVTLLLPFPL, for which the protein stability index amounted to 0.606 ± 0.01.
The sequence CCRRWSLEWGRG came in with a protein stability index of 0.717 ± 0.038.
As to CCVGVGTRLGFA, the protein stability index turned out to be 0.646 ± 0.082.
Next, CCVKRARVPHFV: 0.6159 ± 0.0014.
With CDEVEGVLLVRG, the protein stability index is 0.707 ± 0.047.
Next, CDFVFEFSCVQV: 0.577 ± 0.025; CDRAYSPLSRHN: 0.6848 ± 0.0063; CDVLNQTRKRHK: 0.7028 ± 0.0019.
CEVGSKGCACRV: the protein stability index is 0.649 ± 0.025.
Sequence CFFGSILYLCFG showed a protein stability index of 0.5331 ± 0.0045.
Regarding CFLLCLSSSPVL, the protein stability index came to 0.64 ± 0.029.
In turn, CFPYFCGFLGPL came in with a protein stability index of 0.697 ± 0.031.
Next, CFVIFFSSPGVC: 0.583 ± 0.03; CGAAFRSWTVRG: 0.653 ± 0.067; CGAVDTETWWGG: 0.642 ± 0.024.
CGGAVMREGQVG returned a protein stability index of 0.681 ± 0.013.
Take CGGGGASGAIAR: the protein stability index was determined as 0.668 ± 0.013.
CGGGRSTAWERS: the protein stability index worked out at 0.63 ± 0.015.
CGGVLAQREVSG had a protein stability index of 0.637 ± 0.021.
Next, CGIAGVKSLGLC: 0.717 ± 0.039; CGSCFIKRFGGG: 0.631 ± 0.034.
Sequence CGSTRGDCVGIW returned a protein stability index of 0.705 ± 0.05.
Next, CGTYFRLTRCAV: 0.577 ± 0.043; CGVLPTPDRHHS: 0.631 ± 0.084; CGWAWGWRESKM: 0.723 ± 0.1.
Sequence CHPFQAAVPIYL had a protein stability index of 0.581 ± 0.12.
With CHRSSPPPPPPT, the protein stability index was found to be 0.711 ± 0.046.
Next, CIFTVINNTPYC: 0.801 ± 0.12; CISCVVDSPLSV: 0.712 ± 0.045; CISGRGIYAKAF: 0.699 ± 0.043.
On to CLGSVFYCCWNF, for which the protein stability index is 0.648 ± 0.025.
Next, CLHFSFFTFENF: 0.67 ± 0.02.
Next, CLPFSCFLLTPR: 0.692 ± 0.014.
CLPTGMSKFPDF displayed a protein stability index of 0.683 ± 0.029.
Next, CLRFPALPRRHP: 0.772 ± 0.017; CLSHSIYYSFSF: 0.691 ± 0.086.
Next, CLVLDILSETWL: 0.71 ± 0.036.
For the sequence CLWCCFTDCCDT, the protein stability index is 0.762 ± 0.011.
Sequence CLWLALMSIFLP displayed a protein stability index of 0.539 ± 0.03.
In turn, CLWTSAQVPFQT yielded a protein stability index of 0.703 ± 0.0081.
The sequence CMASCTRSYYRL gave a protein stability index of 0.661 ± 0.005.
With CPAPCPPLPPHV, the protein stability index worked out at 0.71997 ± 0.00064.
CPCPSHLLLRSP displayed a protein stability index of 0.659 ± 0.0084.
As to CPDGSGWLARGC, the protein stability index came to 0.661 ± 0.11.
CPFPPPPCPPPL: the protein stability index amounted to 0.665 ± 0.02.
Turning to CPGGRKPRQTAG, the protein stability index was 0.679 ± 0.14.
The sequence CPGPPSLSPRPS gave a protein stability index of 0.672 ± 0.029.
Next, CPLPIKANLSFP: 0.705 ± 0.037; CPLPPPRPLLSA: 0.651 ± 0.026.
